Experiments:
Assay in all cases: high-speed atomic force microscopy (HS-AFM); channel held by its C-terminal His-tag on Ni2+-coated mica, reconstituted into a DMPC bilayer, extracellular side imaged; 20 mM Tris pH 7.4, 150 mM NaCl (WT, E32Q/N49K) or 50 mM NaCl (N49K); 5 or 10 frames/s; no membrane potential
[1] = target: NavAb channel N49K mutant, C-terminal cytoplasmic domain truncated, C-terminal His-tag (Arcobacter butzleri) (UniProt A8EVM5)
[2] = target: NavAb channel E32Q/N49K mutant, C-terminal cytoplasmic domain truncated, C-terminal His-tag (Arcobacter butzleri) (UniProt A8EVM5)
[3] = target: NavAb channel, wild type, C-terminal cytoplasmic domain truncated, C-terminal His-tag (Arcobacter butzleri) (UniProt A8EVM5)

**Q.** Which stoichiometry N [1] does the source give for “NavAb channel N49K mutant, C-terminal cytoplasmic domain truncated, C-terminal His-tag (from UniProt A8EVM5 1-230) (natural protein)” here?
**A.** The stoichiometry N was 4.

**Q.** For “NavAb channel E32Q/N49K mutant, C-terminal cytoplasmic domain truncated, C-terminal His-tag (from UniProt A8EVM5 1-230) (natural protein)”, which size of the VSD-VSD oligomer between channels [2] is on record?
**A.** Its size of the VSD-VSD oligomer between channels is 2.

**Q.** What about the stoichiometry N [2] of the same substance?
**A.** The stoichiometry N was 4.

**Q.** How did the stoichiometry N [3] turn out when “NavAb channel, wild type, C-terminal cytoplasmic domain truncated, C-terminal His-tag (from UniProt A8EVM5 1-230) (natural protein)” was run?
**A.** The stoichiometry N was 4.
